Source: the supplement of paper PMC12042874
± gives the uncertainty stated by the source.

assay: amyloid nucleation score (Sup35N fusion, yeast selection) (log enrichment); library NNK2; higher = more nucleation; inactive = no reads after selection
In short: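 Growth for 7 days at 30°C on medium lacking adenine and uracil followed a 24-hour induction with 100 μM copper sulfate of psi-negative yeast expressing peptides of 20 random codons fused to Sup35N. Input and output plasmid inserts were sequenced with Illumina, and sequences with under 100 input reads were excluded. Nucleation score is the DiMSum log enrichment of output over input reads, centred on the mode score of non-aggregating sequences.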

**Q.** With GVQTFVMTPTCKRNWLQDGR as the substance, how does the amyloid nucleation score read?
**A.** 0.233 ± 0.27

**Q.** With GVRSNLSYNIFVTCAMRASG as the substance, how does the amyloid nucleation score read?
**A.** inactive

**Q.** With GVSNNALCSNRITSLNRPML as the substance, how does the amyloid nucleation score read?
**A.** 0.313 ± 0.17

**Q.** With GVTKNCSC as the substance, how does the amyloid nucleation score read?
**A.** -0.036 ± 0.63

**Q.** Which amyloid nucleation score does the source give for GVTPYCKRHV here?
**A.** -1.14 ± 0.78

**Q.** For GVVFFFGKDNGRDIMSGTRY, which amyloid nucleation score is on record?
**A.** inactive

**Q.** With GVVLNLDTWLVDEVPDGVRM as the substance, how does the amyloid nucleation score read?
**A.** 0.057 ± 0.76

**Q.** For GVVNSRYALFNCRLEFKDVL, which amyloid nucleation score is on record?
**A.** 9.742 ± 0.071

**Q.** With GVYNITTLLPRCVVNVVL as the substance, how does the amyloid nucleation score read?
**A.** 7.482 ± 0.028

**Q.** Which amyloid nucleation score does the source give for GWESGALWVANFLSVRQA here?
**A.** 0.19 ± 0.56

**Q.** With GWLYVYDSGMFGGWNIGVDG as the substance, how does the amyloid nucleation score read?
**A.** -0.131 ± 0.36

**Q.** For GWMQIGSVYLFSE, which amyloid nucleation score is on record?
**A.** 7.741 ± 0.048

**Q.** With GWTKLFGVHDSGIGCPNGVL as the substance, how does the amyloid nucleation score read?
**A.** inactive

**Q.** Which amyloid nucleation score does the source give for GWWNHGSSMGYFERVSSTFW here?
**A.** inactive

**Q.** Which amyloid nucleation score does the source give for GYAADLWWVLLFYERLVSGD here?
**A.** 0.026 ± 0.49

**Q.** For GYKDANQNM, which amyloid nucleation score is on record?
**A.** inactive

**Q.** Which amyloid nucleation score does the source give for GYKHLIRVQWSKTYSSTGFC here?
**A.** -0.356 ± 1.1

**Q.** Which amyloid nucleation score does the source give for GYSSGFQVAVNLRSTLRQSY here?
**A.** 3.03 ± 0.068

**Q.** With GYVWDVIGKWGTLRILRVSK as the substance, how does the amyloid nucleation score read?
**A.** -0.498 ± 1.1

**Q.** With HAACCASNLLWGRFFWSCAD as the substance, how does the amyloid nucleation score read?
**A.** 2.74 ± 0.084

**Q.** For HCAEHQPASGVLVTGYWDLG, which amyloid nucleation score is on record?
**A.** 0.444 ± 0.54

**Q.** Which amyloid nucleation score does the source give for HCGVLVDISFEHALIFR here?
**A.** -1.99 ± 0.78

**Q.** Which amyloid nucleation score does the source give for HCLFSGYYLKLN here?
**A.** inactive

**Q.** Which amyloid nucleation score does the source give for HCTWSQPPSS here?
**A.** -0.001 ± 0.5

**Q.** For HDGCGPCSHWTGSQFTFRSS, which amyloid nucleation score is on record?
**A.** 2.2 ± 0.11

**Q.** For HDINRMG, which amyloid nucleation score is on record?
**A.** 0.391 ± 0.54

**Q.** Which amyloid nucleation score does the source give for HDRIFSIKSWWCRSIWEVGV here?
**A.** -1.79 ± 0.78

**Q.** With HDRVIRQN as the substance, how does the amyloid nucleation score read?
**A.** 0.084 ± 0.26

**Q.** With HDYFTYT as the substance, how does the amyloid nucleation score read?
**A.** 4.83 ± 0.059

**Q.** With HFETGGIS as the substance, how does the amyloid nucleation score read?
**A.** 0.447 ± 0.57

**Q.** With HFIGVD as the substance, how does the amyloid nucleation score read?
**A.** -0.156 ± 0.28

**Q.** Which amyloid nucleation score does the source give for HFMFVSNRVGWVGLLQNYSR here?
**A.** 6.657 ± 0.066

**Q.** For HFRVYSWIQVK, which amyloid nucleation score is on record?
**A.** 0.337 ± 0.49

**Q.** With HFTYGSSFIL as the substance, how does the amyloid nucleation score read?
**A.** 3.53 ± 0.069

**Q.** With HFVFI as the substance, how does the amyloid nucleation score read?
**A.** -1.05 ± 1.1

**Q.** Which amyloid nucleation score does the source give for HGDAKFGSVVGAFQDLYS here?
**A.** 1.29 ± 0.39

**Q.** Which amyloid nucleation score does the source give for HGHASFIRF here?
**A.** 2.13 ± 0.2

**Q.** For HGNWGLLYLTDALVKMIQDV, which amyloid nucleation score is on record?
**A.** -0.311 ± 0.3

**Q.** For HGQARWGR, which amyloid nucleation score is on record?
**A.** 1.47 ± 0.28

**Q.** For HGTCISSGNKWARWTLS, which amyloid nucleation score is on record?
**A.** 0.355 ± 0.65

**Q.** With HGYSNNTSWAYI as the substance, how does the amyloid nucleation score read?
**A.** 0.436 ± 0.65

**Q.** Which amyloid nucleation score does the source give for HHLKGPSQPSIVEIFE here?
**A.** -0.081 ± 0.31

**Q.** Which amyloid nucleation score does the source give for HHSELFIIITYFG here?
**A.** 0.206 ± 0.5

**Q.** For HIDEYKWT, which amyloid nucleation score is on record?
**A.** 0.546 ± 0.8

**Q.** With HIDNVGVLR as the substance, how does the amyloid nucleation score read?
**A.** 1.18 ± 0.28

**Q.** Which amyloid nucleation score does the source give for HIFHCLSMGILGCSMFLCLD here?
**A.** 0.952 ± 0.24

**Q.** Which amyloid nucleation score does the source give for HIGCIRWFSCGGSPLSMNRL here?
**A.** 1.24 ± 0.2

**Q.** With HIIISKYHINYCRMMNYSGK as the substance, how does the amyloid nucleation score read?
**A.** 8.137 ± 0.056

**Q.** For HKCGTPFAIHIYRSKQLPGV, which amyloid nucleation score is on record?
**A.** -0.305 ± 1

**Q.** With HKGCGNSCIWHYFGNFWRFR as the substance, how does the amyloid nucleation score read?
**A.** -0.658 ± 0.56

**Q.** Which amyloid nucleation score does the source give for HKGFEPVGRGYALCSTWLVV here?
**A.** 6.37 ± 0.074

**Q.** For HKGWIKLLLPAHQLITLPPN, which amyloid nucleation score is on record?
**A.** 0.174 ± 1

**Q.** With HKWCKYNDLFVIHMSGFGRG as the substance, how does the amyloid nucleation score read?
**A.** 5.44 ± 0.087

**Q.** Which amyloid nucleation score does the source give for HKWWSAPGSLAS here?
**A.** -0.038 ± 0.79

**Q.** With HLASFFSSVSYSSDLAYSGT as the substance, how does the amyloid nucleation score read?
**A.** -1.02 ± 0.78

**Q.** For HLFVASYDKRVECFLSVKGE, which amyloid nucleation score is on record?
**A.** inactive

**Q.** Which amyloid nucleation score does the source give for HLMCESGRVFWKD here?
**A.** 0.015 ± 0.31

**Q.** Which amyloid nucleation score does the source give for HLRIGLIN here?
**A.** -0.467 ± 0.43

**Q.** For HLSGYKLLIKSVYFE, which amyloid nucleation score is on record?
**A.** 3.63 ± 0.067

**Q.** With HLTAYCMSTHRQACDVDFDF as the substance, how does the amyloid nucleation score read?
**A.** -0.067 ± 1.1

**Q.** For HLWFLCRSYGGVLKFHTESV, which amyloid nucleation score is on record?
**A.** 1.03 ± 0.43

**Q.** For HLWSLRGPIAFIENRLSVWI, which amyloid nucleation score is on record?
**A.** 0.605 ± 0.51

**Q.** For HLYRSCVNKLL, which amyloid nucleation score is on record?
**A.** -0.833 ± 1.1

**Q.** Which amyloid nucleation score does the source give for HMMFKSPYRCLLLNLTGYVL here?
**A.** 0.934 ± 0.25

**Q.** For HMQPYIRESISVG, which amyloid nucleation score is on record?
**A.** inactive

**Q.** With HMSVGNFLIPLCITMLRGIG as the substance, how does the amyloid nucleation score read?
**A.** -0.347 ± 1.1

**Q.** With HNLCGYLLVSVAWVLWWIRR as the substance, how does the amyloid nucleation score read?
**A.** 2.61 ± 0.11

**Q.** For HNSNYHIYGWVMVRRRIGYI, which amyloid nucleation score is on record?
**A.** inactive

**Q.** With HNTKSYLWV as the substance, how does the amyloid nucleation score read?
**A.** inactive

**Q.** For HNWLSMVQYH, which amyloid nucleation score is on record?
**A.** -0.344 ± 0.76

**Q.** For HPFVSDCVMDLKFTVVTGLV, which amyloid nucleation score is on record?
**A.** 0.086 ± 0.3

**Q.** With HPYYDQ as the substance, how does the amyloid nucleation score read?
**A.** 0.538 ± 0.45

**Q.** Which amyloid nucleation score does the source give for HRDHGTISLHRKCSYVALAS here?
**A.** 1.14 ± 0.29

**Q.** With HRMAPMGVISGNVLLPLSVW as the substance, how does the amyloid nucleation score read?
**A.** inactive

**Q.** Which amyloid nucleation score does the source give for HRNQTASKGCSCLLDCHDTG here?
**A.** 0.356 ± 0.23

**Q.** With HRTLFKGPSWLPKRRERAIL as the substance, how does the amyloid nucleation score read?
**A.** -0.097 ± 0.79

**Q.** Which amyloid nucleation score does the source give for HRVFNEGASMGTCCSILLEM here?
**A.** 6.047 ± 0.042

**Q.** For HRYSRLRRVHYSYRSKGLNH, which amyloid nucleation score is on record?
**A.** inactive

**Q.** For HSFVNNEKASQMSSCETGGS, which amyloid nucleation score is on record?
**A.** -0.509 ± 0.41

**Q.** With HSLMQLYLVIFLAHFQSYGL as the substance, how does the amyloid nucleation score read?
**A.** 0.604 ± 0.44

**Q.** Which amyloid nucleation score does the source give for HSMAWNVG here?
**A.** inactive

**Q.** With HSNGKMNTTIHVVSELTVMR as the substance, how does the amyloid nucleation score read?
**A.** 4.31 ± 0.058

**Q.** For HSNLVT, which amyloid nucleation score is on record?
**A.** 0.234 ± 0.41

**Q.** With HSPNCYKMSGRFLCD as the substance, how does the amyloid nucleation score read?
**A.** -1.77 ± 0.54

**Q.** Which amyloid nucleation score does the source give for HSRHHWYPSWQFWMLRPQNC here?
**A.** 1.4 ± 0.43

**Q.** Which amyloid nucleation score does the source give for HSSGCYF here?
**A.** 0.081 ± 1.1

**Q.** With HSTVSLQSGRMNVVASGVIH as the substance, how does the amyloid nucleation score read?
**A.** 1.62 ± 0.11
